Assay results reported in patent publication US20090068174.

Tests used:
[1] = molecular target: T1, mouse recombinant IFN-γ, P01580
T1 chain: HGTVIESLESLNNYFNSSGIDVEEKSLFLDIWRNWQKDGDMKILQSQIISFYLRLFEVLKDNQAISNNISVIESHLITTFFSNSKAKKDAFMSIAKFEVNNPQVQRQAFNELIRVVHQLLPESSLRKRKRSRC

[2] = molecular target: T2, D-val-leu-lys-pNA
T2 chain: VLK

[3] = molecular target: T3, human recombinant IFN-γ, P01579
T3 chain: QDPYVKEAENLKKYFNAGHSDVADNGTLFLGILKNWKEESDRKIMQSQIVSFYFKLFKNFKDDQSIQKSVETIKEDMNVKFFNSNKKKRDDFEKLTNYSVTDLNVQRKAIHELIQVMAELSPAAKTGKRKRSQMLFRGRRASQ

[4] = molecular target: human recombinant TNF-α, P01375
[5] = molecular target: T4, mouse recombinant TNF-α, P06804
T4 chain: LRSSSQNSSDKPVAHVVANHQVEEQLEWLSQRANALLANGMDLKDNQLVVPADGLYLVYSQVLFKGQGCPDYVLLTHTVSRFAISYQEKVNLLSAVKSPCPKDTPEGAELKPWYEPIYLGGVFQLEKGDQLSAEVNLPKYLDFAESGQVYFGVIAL

[6] = molecular target: salmon protamine sulfate

human recombinant TNF-α, P01375, sequence (P01375 77-233): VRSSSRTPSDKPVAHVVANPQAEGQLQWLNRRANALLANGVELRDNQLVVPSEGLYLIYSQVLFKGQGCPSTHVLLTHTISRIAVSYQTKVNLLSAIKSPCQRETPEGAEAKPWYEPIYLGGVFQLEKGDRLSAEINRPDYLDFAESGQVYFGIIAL

B1: Aspergillus oryzae alkaline protease (protein)
chain: GLTTQKSAPWGLGSISHKGQQSTDYIYDTSAGEGTYAYVVDSGVNVDHEEFEGRASKAYNAAGGQHVDSIGHGTHVSGTIAGKTYGIAKKASILSVKVFQGESSSTSVILDGFNWAANDIVSKKRTSKAAINMSLGGGYSKAFNDAVENAFEQGVLSVVAAGNENSDAGQTSPASAPDAITVAAIQKSNNRASFSNFGKVVDVFAPGQDILSAWIGSSSATNTISGTSMATPHIVGLSLYLAALENLDGPAAVTKRIKELATKDWKDVKGSPNLLAYNGNA
Proteolysis by Western blotting [1]: alkaline protease (AP) purified from the protease powder prepared according to Example 1 evidenced the same substrate specificity | Specific activity: hydrolysis of Val-leu-lys-pNA (absorbance at 405 nm) (mOD/min/µg protein) [2]: 117 | Proteolysis by Western blotting [3]: the protease did not cleave human IFN-γ | Proteolysis by Western blotting (50 ng cytokine, 2.5-10 ng protease, overnight at 37° C.) [4]: Alkaline protease and, to a lesser extent, 26 kDa protease each produced a similar pattern of cleavage | Proteolysis by Western blotting [5]: alkaline protease (AP) purified from the protease powder prepared according to Example 1 evidenced the same substrate specificity | Specific activity: hydrolysis of salmon protamine (ninhydrin assay) (nmoles Leucine/30 min./µg protein) [6]: 951

B2: Aspergillus oryzae 26 kDa protease (protein)
chain: HASADAWASSKAISSTSSPSSFKMRFISVSSLLLALAPALNAVPVEVAGSAQGLDVTLSQVGNTRIKAWKNTGSEDVTFVHLNFFKDAAPVQKVSLFRNATEVQFQGIKQRLITEGLSDDALTTLAPGATIEDEFDIASTSDLSEGGTITINSNGLVPITTDNKVTGYIPFTSNELSIDVDAAEAASVTQAVKILERRTKVTSCSGSRLSALQTALRNTVSLARAAATAAQSGSSSRFQEYFKTTSSSTRSTVAARLNAVANEAASTSSGSTTYYCSDVYGYCSSNVLAYTLPSYNIIANCDLYYSYLPALTSTCHAQDQATTTLHEFTHAPGVYSPGTDDLGYGYSAATALSASQALLNADTYALFANAVNLNC
Specific activity: hydrolysis of Val-leu-lys-pNA (absorbance at 405 nm) (mOD/min/µg protein) [2]: 2.1 | Proteolysis by Western blotting [3]: both deuterolysin and 26 kDa protease cleave human IFN-γ | Proteolysis by Western blotting (50 ng cytokine, 2.5-10 ng protease, overnight at 37° C.) [4]: Alkaline protease and, to a lesser extent, 26 kDa protease each produced a similar pattern of cleavage | Specific activity: hydrolysis of salmon protamine (ninhydrin assay) (nmoles Leucine/30 min./µg protein) [6]: 679

B3: Aspergillus oryzae deuterolysin (neutral protease II) (protein)
chain: TEVTDCKGDAESSLTTALSNAAKLANQAAEAAESGDESKFEEYFKTTDQQTRTTVAERLRAVAKEAGSTSGGSTTYHCNDPYGYCEPNVLAYTLPSKNEIANCDIYYSELPPLAQKCHAQDQATTTLHEFTHAPGVYQPGTEDLGYGYDAATQLSAQDALNNADSYALYANAIELKC
Specific activity: hydrolysis of Val-leu-lys-pNA (absorbance at 405 nm) (mOD/min/µg protein) [2]: 2.3 | Proteolysis by Western blotting [3]: both deuterolysin and 26 kDa protease cleave human IFN-γ | Proteolysis by Western blotting (50 ng cytokine, 2.5-10 ng protease, overnight at 37° C.) [4]: deuterolysin was without significant effect | Specific activity: hydrolysis of salmon protamine (ninhydrin assay) (nmoles Leucine/30 min./µg protein) [6]: 677
